# Source: IntAct's records for PubMed 16083711
# B1: DNA mismatch repair protein Mlh1 (Homo sapiens), P40692 (parent)
# chain: MSFVAGVIRRLDETVVNRIAAGEVIQRPANAIKEMIENCLDAKSTSIQVIVKEGGLKLIQIQDNGTGIRKEDLDIVCERFTTSKLQSFEDLASISTYGFRGEALASISHVAHVTITTKTADGKCAYRASYSDGKLKAPPKPCAGNQGTQITVEDLFYNIATRRKALKNPSEEYGKILEVVGRYSVHNAGISFSVKKQGETVADVRTLPNASTVDNIRSIFGNAVSRELIEIGCEDKTLAFKMNGYISNANYSVKKCIFLLFINHRLVESTSLRKAIETVYAAYLPKNTHPFLYLSLEISPQNVDVNVHPTKHEVHFLHEESILERVQQHIESKLLGSNSSRMYFTQTLLPGLAGPSGEMVKSTTSLTSSSTSGSSDKVYAHQMVRTDSREQKLDAFLQPLSKPLSSQPQAIVTEDKTDISSGRARQQDEEMLELPAPAEVAAKNQSLEGDTTKGTSEMSEKRGPTSSNPRKRHREDSDVEMVEDDSRKEMTAACTPRRRIINLTSVLSLQEEINEQGHEVLREMLHNHSFVGCVNPQWALAQHQTKLYLLNTTKLSEELFYQILIYDFANFGVLRLSEPAPLFDLAMLALDSPESGWTEEDGPKEGLAEYIVEFLKKKAEMLADYFSLEIDEEGNLIGLPLLIDNYVPPLEGLPIFILRLATEVNWDEEKECFESLSKECAMFYSIRKQYISEESTLSGQQSEVPGSIPNSWKWTVEHIVYKALRSHILPPKHFTEDGNILQLANLPDLYKVFERC
# partner: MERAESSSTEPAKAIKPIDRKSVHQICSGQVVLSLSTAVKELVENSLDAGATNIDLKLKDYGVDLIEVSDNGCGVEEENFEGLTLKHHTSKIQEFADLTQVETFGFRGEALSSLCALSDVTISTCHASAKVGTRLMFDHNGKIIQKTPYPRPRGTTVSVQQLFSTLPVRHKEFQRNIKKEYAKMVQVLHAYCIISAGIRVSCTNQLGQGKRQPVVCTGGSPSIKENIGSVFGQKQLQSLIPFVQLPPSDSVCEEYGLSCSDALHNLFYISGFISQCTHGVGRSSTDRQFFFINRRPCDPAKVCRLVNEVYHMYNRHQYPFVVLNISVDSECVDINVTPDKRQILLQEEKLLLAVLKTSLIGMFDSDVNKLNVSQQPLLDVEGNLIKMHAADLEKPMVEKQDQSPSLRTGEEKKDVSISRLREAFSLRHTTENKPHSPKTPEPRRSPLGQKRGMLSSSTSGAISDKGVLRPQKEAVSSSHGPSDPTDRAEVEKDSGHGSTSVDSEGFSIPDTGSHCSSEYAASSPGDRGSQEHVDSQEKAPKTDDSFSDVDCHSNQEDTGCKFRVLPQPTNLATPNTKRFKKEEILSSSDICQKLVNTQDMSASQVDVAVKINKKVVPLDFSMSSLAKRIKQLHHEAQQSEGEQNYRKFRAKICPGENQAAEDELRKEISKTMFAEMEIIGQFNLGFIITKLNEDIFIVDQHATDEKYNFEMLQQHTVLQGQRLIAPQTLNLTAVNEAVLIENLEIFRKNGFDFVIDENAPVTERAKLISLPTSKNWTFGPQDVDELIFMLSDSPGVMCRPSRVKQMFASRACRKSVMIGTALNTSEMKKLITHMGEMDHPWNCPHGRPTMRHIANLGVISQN
# Variants of: B1
# Conditions: with pms2_human PMS2, P54278
row,Variant,effect of a mutation on the interaction
1,I219V,with no effect
2,H329P,with no effect
3,S247P,with no effect
4,P28L,with no effect
5,S93G,with no effect
6,I107R,with no effect
7,L155R,with no effect
8,V213M,with no effect
9,G67R,with no effect
10,K443Q,with no effect
11,F80V,with no effect
12,K84E,with no effect
13,C77R,with no effect
14,A29S,with no effect
